In paper PMC4431850 (PLoS ONE, 2015):

What was measured:
[1] = target: the molecule itself; assay: SEC-MALS; light scattering experiments, data not shown; oligomeric state
[2] = target: the molecule itself; assay: SEC-MALS; Superdex200 10/30 coupled to light scattering (miniDAWN TREOS) and refractive index detectors; 20 mM sodium phosphate pH 7.5, 2 mM DTT; oligomeric state
[3] = target: T1, Cul3^NTD, N-terminal region (residues 20-381) of cullin 3 (UniProt Q13618 20-381); assay: SEC; BTB domain mixed with Cul3^NTD at 4°C in 20 mM NaP, 200 mM NaCl, 2 mM DTT pH 7.5; Superdex 200 10/30; SDS-PAGE of the peaks; conditions: both partners purified
T1 construct: cullin 3, N-terminal region, residues 20-381; Printed Mw 42 kDa; source: expressed and purified according to Balasco et al. [19]; recombinant, bacterial system
T1 sequence (Q13618 20-381): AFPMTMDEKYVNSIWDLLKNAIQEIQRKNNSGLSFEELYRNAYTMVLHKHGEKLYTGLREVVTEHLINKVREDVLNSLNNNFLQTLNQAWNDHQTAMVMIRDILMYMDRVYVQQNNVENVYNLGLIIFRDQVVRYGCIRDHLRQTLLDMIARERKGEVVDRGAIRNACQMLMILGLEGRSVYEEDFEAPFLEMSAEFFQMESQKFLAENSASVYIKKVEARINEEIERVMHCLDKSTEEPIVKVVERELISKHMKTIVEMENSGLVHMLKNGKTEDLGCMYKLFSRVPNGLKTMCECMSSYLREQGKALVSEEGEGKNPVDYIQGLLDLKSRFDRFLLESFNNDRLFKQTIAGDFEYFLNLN

[4] = target: T1, Cul3^NTD, N-terminal region (residues …); assay: ITC; BTB domain (55 μM as tetramer) titrated into Cul3^NTD (25 μM); 22°C; 20 mM NaP, 200 mM NaCl, 2 mM DTT pH 7.5; single-binding site model; conditions: both partners purified

Binder | stoichiometry N [1] | stoichiometry N [2] | also measured
BTB domain of KCTD6 (KCTD6^BTB) (domain or fragment, UniProt Q8NC69 10-110, looked up, KCTD6, BTB domain, residues 10-110 of UniProt Q8NC69; Tetramer (~46 kDa); source: E. coli BL21(DE3), purified (protocol of Pirone et al. [23])) MTDPVTLNVGGHLYTTSLTTLTRYPDSMLGAMFGGDFPTARDPQGNYFIDRDGPLFRYVLNFLRTSELTLPLDFKEFDLLRKEADFYQIEPLIQCLNDPKP | 4 |  | 
chimeric BTB domain CHIM11/12^BTB (KCTD11^BTB with residues 42-63 replaced by residues 61-80 of KCTD12^BTB) (domain or fragment, UniProt Q693B1-2 15-41, looked up, KCTD11 BTB domain (15-116 of the long form, isoform 2) up to the replaced α2β3 loop (42-63); numbers count on: the long form (isoform 2); KCTD12, residues 61-80, predicted α2β3 loop; KCTD11 BTB domain (15-116 of the long form, isoform 2) after the replaced α2β3 loop (42-63); also called chimeric variant of KCTD11; source: E. coli, purified (procedure used for KCTD11 [5])) GPVTLNVGGTLYSTTLETLTRFPDSMLWRMFTQQQPQELARDSKGRFFIDRDGKAFRHILNFLRLGRLDLPRGYGETALLRAEADFYQIRPLLDALRELE |  | 4 | 
BTB domain of KCTD11 (KCTD11^BTB) (domain or fragment, UniProt Q693B1-2 15-116, looked up, KCTD11, BTB domain, residues 15-116 of the long form of the protein (isoform 2, UniProt Q693B1-2); numbers count on: the long form (isoform 2); Tetramer (~46 kDa); source: E. coli BL21(DE3), purified (procedure of Correale et al. [5])) GPVTLNVGGTLYSTTLETLTRFPDSMLGAMFRAGTPMPPNLNSQGGGHYFIDRDGKAFRHILNFLRLGRLDLPRGYGETALLRAEADFYQIRPLLDALRELE | 4 |  | stoichiometry N [3]: 1 BTB chains : Cul3^NTD (4:4); Kd [4]: 25 ± 2 nM; dH [4]: -21 ± 0.1 kcal/mol; stoichiometry N [4]: ~0.25 KCTD tetramers per Cul3^NTD
BTB domain of KCTD12 (KCTD12^BTB) (domain or fragment, UniProt Q96CX2 27-131, looked up, KCTD12, BTB domain, residues 27-131 of UniProt Q96CX2; Tetramer (~46 kDa); source: E. coli BL21(DE3), purified (procedure of Correale et al. [24] and Errington et al. [25])) AEPPLFPDIVELNVGGQVYVTRRCTVVSVPDSLLWRMFTQQQPQELARDSKGRFFLDRDGFLFRYILDYLRDLQLVLPDYFPERSRLQREAEYFELPELVRRLGA | 4 |  | 
BTB domain of KCTD15 (KCTD15^BTB) (domain or fragment, human, UniProt Q96SI1-1 61-157, looked up, KCTD15, human, BTB domain, residues 61-157 of UniProt Q96SI1-1; cloned NdeI/EcoRI into pET28b+; Tetramer by light scattering (47.1 kDa against 47.5 kDa expected); source: E. coli BL21(DE3) pLys-S co-transformed with pREP4 GroESL, purified (Ni-NTA, Superdex200)) DVGGHMYTSSLATLTKYPDSRISRLFNGTEPIVLDSLKQHYFIDRDGEIFRYVLSFLRTSKLLLPDDFKDFSLLYEEARYYQLQPMVRELERWQQEQ |  | 4 | 
